Reference: the supplement of paper PMC10567573
± gives the standard deviation.

Experiment: protein stability index of a GFP-peptide fusion (GPS, HEK-293T) (PSI 1-6); higher = more stable
[1] = treatment: DMSO, c terminus: a fixed tail appended
[2] = treatment: MLN4924 1 uM, 8 h, c terminus: a fixed tail appended
[3] = treatment: DMSO, c terminus: native
[4] = treatment: MLN4924 1 uM, 8 h, c terminus: native
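Also: 24-mer peptide tiles fused after GFP, lentivirally expressed, FACS-sorted into six equal bins by GFP/DsRed ratio, decoded by Illumina sequencing, PSI is the read-weighted mean bin number.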

Sequence	protein stability index [1]	protein stability index [2]	protein stability index [3]	protein stability index [4]
RTGSLFKIWLVVPSLLELAWEKLL [KLHDC10]	2.84 ± 0.27	2.78 ± 0.31	–	–
RHLNDDDVTGSVKSERRNLLEDDS [VAMP4]	5.28 ± 0.2	5.42 ± 0.19	–	–
YSDRTNIISKPVPQTLIMAYDYAK [FEM1C]	2.36 ± 0.24	2.49 ± 0.41	–	–
GWGTVFSLESEEEEYPGITAEDSN [BCL2L13]	5.05 ± 0.23	5.03 ± 0.38	–	–
KAQIWDTAGQERYRAITSAYYRGA [RAB11A]	2.88 ± 0.16	2.98 ± 0.31	–	–
KSAAMLAVFAVSAVVHEYALAVCL [SOAT1]	3.22 ± 0.64	3.32 ± 0.54	–	–
FHEVGTEMIITKAGRRMFPSYKVK [TBX5]	2.35 ± 0.35	2.72 ± 0.33	–	–
IDYYESKIRKIHTQRQYKEDESQS [CEP70]	4.08 ± 0.084	4.2 ± 0.1	–	–
EEVVSTLDAVQVLSGVSQLLPKSR [FCHO1]	4.3 ± 0.28	4.43 ± 0.24	–	–
TAKRINRTSLSSGATVRSFSINSR [CDC14A]	3.26 ± 0.41	3.6 ± 0.12	–	–
NAYKDLAWKHGNIHLSAPCIYSEV [PCMTD1]	2.31 ± 0.17	2.15 ± 0.31	–	–
PQGDEEDIASRYPTLWTEQVKSRQ [SMOC2]	4.55 ± 0.17	4.52 ± 0.091	–	–
YRFRMKCHLCVNYIEMQTDPANCD [YJU2B]	2.3 ± 0.31	2.26 ± 0.17	–	–
SLKEAEFYDKQLKVLLSGATFLVT [ZFYVE21]	2.27 ± 0.52	2.55 ± 0.19	–	–
KRYSMYLTPKGGVRTSYQPSSPGR [TRIM29]	3.15 ± 0.28	3.37 ± 0.41	–	–
GNFDWEAIFDAGTLGGELGALEAL [FOXJ1]	4.15 ± 0.26	4.17 ± 0.34	–	–
GIDLAVYETLKNAWLQHYAVNSAD [SLC25A25]	2.84 ± 0.44	2.4 ± 0.33	–	–
TGPRLSFPLLPDHATALVEAFRLK [PPEF2]	2.89 ± 0.23	3.07 ± 0.19	–	–
LDQLLRHVMNPLETLSITNCRLSE [PRAME]	2.59 ± 0.62	2.39 ± 0.49	–	–
EESEKAMQERVQRLEAARLSLEEE [LRRC45]	5.48 ± 0.2	5.57 ± 0.091	–	–
GSIEYSCPASNECEITKRRRKACQ [ESRRA]	4.88 ± 0.23	4.97 ± 0.25	–	–
HVKFRSLSMVSECLFSLINGDDMF [MCOLN1]	2.84 ± 0.45	2.61 ± 0.45	–	–
LTEIYRIVSQKQIADRAAHDESPG [RAB11B]	3.52 ± 0.12	3.52 ± 0.27	–	–

Sequence	protein stability index [1]	protein stability index [2]	protein stability index [3]	protein stability index [4]
LEELIDMAVLEEIQQELIKQEQSI [RPAIN]	3.34 ± 0.31	3.44 ± 0.3	–	–
RVWLKRDSGQYWPSVYHAMPSPCS [WDFY2]	2.26 ± 0.27	2.33 ± 0.46	–	–
WESRTGDQYSYSSLVMGSQTESAL [LCOR]	3.44 ± 0.27	3.51 ± 0.46	–	–
IQKRNQRQSGDRRQLPPPPTPANE [WAS]	5.29 ± 0.23	5.16 ± 0.21	–	–
SSCNGPGQTTGHPYYLRSFLVVLK [FAN1]	2.21 ± 0.47	2.51 ± 0.47	–	–
DDHGDECSYTDLLPQDEGGGGYSS [KCNA4]	5.52 ± 0.22	5.62 ± 0.082	–	–
LAVCLAPSLFHLNTLKRENSSPRV [DLC1]	2.24 ± 0.24	2.11 ± 0.2	–	–
GTATRQNNWPPLPSFCPVQPCFFQ [SCAMP3]	2.42 ± 0.16	2.45 ± 0.19	–	–
ANAAKHTQDSARVNPQDGTNTLTR [EHMT1]	5.13 ± 0.18	5.19 ± 0.14	–	–
FVLSCSYDGLDCQARQFRTFHHPT [SCNN1D]	2.62 ± 0.74	2.63 ± 0.58	–	–
PALCFAAAIFSLFFVPLSYLLMVT [TMEM175]	3.03 ± 0.093	3.31 ± 0.21	–	–
KDGKNWNSNQATDIMETSGWKSMI [SPOPL]	3.38 ± 0.32	3.54 ± 0.4	–	–
PVLQSRTGLVYDQNMMNHCNLWDS [HDAC6]	2.75 ± 0.41	2.93 ± 0.33	–	–
VGSVHVDSGASAITRESHTHRDRP [CSNK1G1]	4.85 ± 0.25	4.66 ± 0.32	–	–
FSLTHTHTHTPNHRGINCFFPEL [ANKRD44]	–	–	2.54 ± 0.56	2.76 ± 0.57
MDSGCWLFGGEFEDSVFEERPERR [C8orf76]	4.06 ± 0.33	4.29 ± 0.27	–	–
PRNKTENGLTPKKKIQVNSKPSIQ [ATF6]	4.24 ± 0.31	3.96 ± 0.17	–	–
HQHEEIQNVRNHIHSCFSDVTCFL [ATL3]	2.26 ± 0.15	2.26 ± 0.13	–	–
FNMLHDNSKPCISLNGPLSTSRHV [ADAMTS4]	3.21 ± 0.22	3.26 ± 0.25	–	–
SSKSSGDLVDLFDGTSQSTGGSAD [CLINT1]	5.41 ± 0.22	5.55 ± 0.21	–	–
ISSSSFGAEPSAPGGGGSPGACPA [RTN3]	4.72 ± 0.51	4.97 ± 0.089	–	–
PPSEPVPSLEDISCNTWPSMPSYS [TBX5]	4.269 ± 0.038	4.38 ± 0.19	–	–
VHRQLGEANEEFALRVQQLVAKEL [AUP1]	3.79 ± 0.076	3.88 ± 0.1	–	–

Sequence	protein stability index [1]	protein stability index [2]	protein stability index [3]	protein stability index [4]
PGQPLPGASVRGLHPVQKVILNYP [TRAF3IP2]	3.55 ± 0.36	3.45 ± 0.52	–	–
ITTRVNSEQEHFLIVPFGLLYSEV [ADD1]	2.74 ± 0.79	2.61 ± 0.81	–	–
ISSVLAGGSCRAPSTYGGGLSVSS [KRT16]	2.38 ± 0.33	2.27 ± 0.27	–	–
LPEWISCLIQKAQWTVGKLNCPFC [RNF180]	2.22 ± 0.19	2.31 ± 0.087	–	–
LEAPEDIGSTSESKDWEEVVVESM [MIA2]	5.4 ± 0.23	5.58 ± 0.013	–	–
LLLPGLNQHGIILKYIGMAKREIN [ARL6IP1]	2.42 ± 0.68	2.38 ± 0.97	–	–
GLNLGKKISVPRDVMLEELSLLTN [MYOZ1]	2.72 ± 0.41	3.1 ± 0.29	–	–
CGSARPKPYDPPGEKMVAAKVKGE [ATF4]	4.57 ± 0.17	4.82 ± 0.33	–	–
PLSPPPINYNGIFSLKQEETLDYG [NEUROD6]	4.63 ± 0.38	4.36 ± 0.37	–	–
LQKDLETRPTQHELRLYKQQVKKL [CEP70]	4.19 ± 0.2	4.42 ± 0.37	–	–
HSVTGFLCEPDPVHFSEAIEKFIR [ALG2]	2.8 ± 0.21	2.93 ± 0.26	–	–
IKGKEGSALTEGAKEEGGEEVAKA [EPB41L3]	5.81 ± 0.17	5.86 ± 0.12	–	–
PGPQGSAGQRGEPGPKGDPGEKSH [EMID1]	5.62 ± 0.4	5.49 ± 0.26	–	–
VTDYFFTLVQREEPLRILSKYHRF [CDS2]	2.45 ± 0.21	2.42 ± 0.28	–	–
DQIRQGIQLKSVADGQESTPPTPA [WASL]	5.33 ± 0.16	5.51 ± 0.15	–	–
EFQMFPKSRLSSVSVTYCSVSQDF [ETS2]	2.23 ± 0.25	2.15 ± 0.21	–	–
SKDWEEVVVESMEQDRIPEVHVPP [MIA2]	5.09 ± 0.25	4.87 ± 0.26	–	–
ESSSPARGIAIVSVLVILISIVIF [KCNA4]	3.13 ± 0.59	2.9 ± 0.33	–	–
EVAAQLPAVRQLLPCARVQICRAQ [ZSWIM9]	2.42 ± 0.23	2.77 ± 0.35	–	–
RSGGHAPRVRELLLDALSPEQLVL [ESR2]	2.82 ± 0.14	2.91 ± 0.34	–	–
LGQNDTGFSCDGTANTFRVMFKEP [BTBD1]	3.36 ± 0.2	3.29 ± 0.31	–	–
PKTMSQKEMEQLFSQYGRIITSRI [ELAVL3]	2.68 ± 0.18	2.76 ± 0.35	–	–
NLISPVRNGAVRRFGQTIQSFTLR [NET1]	2.65 ± 0.32	2.7 ± 0.14	–	–

Sequence	protein stability index [1]	protein stability index [2]	protein stability index [3]	protein stability index [4]
ADIISTVEFNHTGELLATGDKGGR [PPP2R2C]	4.52 ± 0.42	4.66 ± 0.44	–	–
EDERWTNNFREYNLHRVAAHELGH [MMP1]	3.73 ± 0.19	3.62 ± 0.2	–	–
THQTQPGIRRARDKALSGGKRKET [NET1]	4.79 ± 0.23	5 ± 0.17	–	–
YTSPDKLKDIFMFITRQLKGLEDT [PDS5B]	3.62 ± 0.19	3.84 ± 0.3	–	–
LSEALKEATKEVHTQAENAEFMRN [HMOX1]	4.92 ± 0.1	5.01 ± 0.48	–	–
CGLLPISPEALSLGEVAYHDYHGI [ADD1]	2.18 ± 0.24	2.35 ± 0.41	–	–
REMVMYSITVAFWLLNSWLWFRR [MFF]	–	–	2.27 ± 0.96	2.48 ± 0.86
MSLLPDKKTVHYYAELGQCSVFPA [PLK2]	2.41 ± 0.13	2.44 ± 0.35	–	–
LVETNRREVEQWFATQTEELNKQV [KRT33B]	4.41 ± 0.21	4.49 ± 0.31	–	–
DRKSVKFVETRLRDLPDTPRRFTF [TRIM39]	2.98 ± 0.12	3.08 ± 0.29	–	–
TNCWLIRELNLPFGGMKSSGIGRE [ALDH8A1]	2.31 ± 0.41	2.29 ± 0.33	–	–
FPYFRSDRDKRDFVSAGAAAGVAA [CLCN6]	3.63 ± 0.45	3.82 ± 0.23	–	–
PVRKLYDDCSSTIVEDPQTKCEYM [ESRRG]	4.47 ± 0.21	4.64 ± 0.19	–	–
EFFRESVNRFGTYPALASKNGKKW [ACSBG2]	2.87 ± 0.45	3.2 ± 0.28	–	–
RMRYLNGLDPEPLPLMDLCRRSVR [SPSB1]	3.21 ± 0.27	3.36 ± 0.1	–	–
DAINEEIRMIQEEKESTELRAEEI [PPFIA4]	5.71 ± 0.15	5.51 ± 0.25	–	–
LAGGLCVGIYATNSAEACQYVITH [ACSBG2]	2.84 ± 1.1	2 ± 0.36	–	–
MSNHTRERVTVAKLTLENFYSNLI [STK38L]	2.21 ± 0.16	2.31 ± 0.31	–	–
FALQGLPLNCAPCPRRSEPVVQCQ [IRX6]	2.7 ± 0.16	2.79 ± 0.28	–	–
LSLRQTGSPGMIYSTRYGSPKRQL [KCNAB2]	2.98 ± 0.51	3.17 ± 0.31	–	–
